From publication PMC4735607, “Reversal of axonal growth defects in an extraocular fibrosis model by engineering the kinesin–microtubule interface” (Nature Communications, 2016)
Where a chain is given by its changes, count along the chain named. Names may count otherwise.

B1: WT KIF5B, single-headed (monomeric) construct HK349 (K349-SNAP-His) (domain or fragment, human, UniProt P33176 1-349, looked up)
chain: MADLAECNIKVMCRFRPLNESEVNRGDKYIAKFQGEDTVVIASKPYAFDRVFQSSTSQEQVYNDCAKKIVKDVLEGYNGTIFAYGQTSSGKTHTMEGKLHDPEGMGIIPRIVQDIFNYIYSMDENLEFHIKVSYFEIYLDKIRDLLDVSKTNLSVHEDKNRVPYVKGCTERFVCSPDEVMDTIDEGKSNRHVAVTNMNEHSSRSHSIFLINVKQENTQTEQKLSGKLYLVDLAGSEKVSKTGAEGAVLDEAKNINKSLSALGNVISALAEGSTYVPYRDSKMTRILQDSLGGNCRTTIVICCSPSSYNESETKSTLLFGQRAKTIKNTVCVNVELTAEQWKKKYEKEKE
modifications: fluorescent dye BG-549 (SNAP-surface 549) on the SNAP tag
notes: kinesin heavy chain KIF5B, human, residues 1-349; also called minimal motor; not shown: SNAP tag, C-terminal, kept
B2: D279R KIF5B, single-headed (monomeric) construct HK349 (domain or fragment, human, UniProt P33176 1-349, looked up)
chain: B1 chain with D279R
modifications: fluorescent dye BG-549 (SNAP-surface 549) on the SNAP tag
notes: kinesin heavy chain KIF5B, human, residues 1-349, with D279R in the L12 loop; also called HK349 D279R; not shown: SNAP tag, C-terminal, kept

Legend:
Conditions in all cases: both partners purified
[1] = biological target: T1, beta-R262A microtubules of recombinant human TUBA1B (K40R) and TUBB3 R262A tubulin (human, UniProt P68363-1 1-451; Q13509-1 1-450, K40R | R262A); test: co-sedimentation; ADP state: 0.1 µM BG-549-labelled HK349 with varying concentrations of MTs; x2 MA buffer, 1 mg/ml casein, 40 µM taxol, 1 mM ADP and 1 U/ml hexokinase; fraction of HK349 in the MT pellet against total MT concentration fitted to a hyperbola
T1 construct: beta3-tubulin TUBB3, Homo sapiens, NP_006077, with R262A; Polymer of alpha/beta heterodimers, taxol-stabilised; Each tag is joined through a GGSGG linker; also called β-R262A; R262A MT; source: HighFive insect cells (baculovirus), purified (DEAE Sepharose, TALON, anti-FLAG resin), polymerized with taxol

[2] = biological target: T2, WT microtubules of recombinant human TUBA1B (K40R, treated as WT) and TUBB3 tubulin (human, UniProt P68363-1 1-451; Q13509-1 1-450, K40R); test: as above
T2 construct: beta3-tubulin TUBB3, Homo sapiens, NP_006077; Polymer of alpha/beta heterodimers, taxol-stabilised; Each tag is joined through a GGSGG linker; also called WT MT; WT MTs; source: HighFive insect cells (baculovirus), purified (DEAE Sepharose, TALON, anti-FLAG resin), polymerized with taxol

[3] = biological target: T1, beta-R262A microtubules of recombinant …; test: co-sedimentation; nucleotide-free state: 0.1 µM BG-549-labelled HK349 with varying concentrations of MTs; x2 MA buffer, 1 mg/ml casein, 40 µM taxol, 1 U/ml apyrase; fraction of HK349 in the MT pellet against total MT concentration fitted to a hyperbola
[4] = biological target: T2, WT microtubules of recombinant human …; test: as above
[5] = biological target: T1, beta-R262A microtubules of recombinant …; test: co-sedimentation; AMPPNP state: 0.1 µM BG-549-labelled HK349 with varying concentrations of MTs; x2 MA buffer, 1 mg/ml casein, 40 µM taxol, 1 mM AMPPNP and 1 U/ml apyrase; fraction of HK349 in the MT pellet against total MT concentration fitted to a hyperbola
[6] = biological target: T2, WT microtubules of recombinant human …; test: as above

T2 sequence (P68363 whole entry K40R, chain 1 of 2): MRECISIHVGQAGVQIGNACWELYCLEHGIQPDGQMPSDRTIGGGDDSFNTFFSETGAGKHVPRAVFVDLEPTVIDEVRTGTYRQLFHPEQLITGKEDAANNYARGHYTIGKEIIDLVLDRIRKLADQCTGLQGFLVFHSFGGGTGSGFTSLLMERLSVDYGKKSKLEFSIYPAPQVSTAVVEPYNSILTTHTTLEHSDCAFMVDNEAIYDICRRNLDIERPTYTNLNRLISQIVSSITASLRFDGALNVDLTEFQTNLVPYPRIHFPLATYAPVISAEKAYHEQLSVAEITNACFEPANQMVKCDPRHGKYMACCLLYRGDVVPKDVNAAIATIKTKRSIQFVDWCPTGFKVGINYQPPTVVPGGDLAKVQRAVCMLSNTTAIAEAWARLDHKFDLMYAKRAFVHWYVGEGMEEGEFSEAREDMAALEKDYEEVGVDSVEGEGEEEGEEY
T2 sequence (Q13509 whole entry, chain 2 of 2): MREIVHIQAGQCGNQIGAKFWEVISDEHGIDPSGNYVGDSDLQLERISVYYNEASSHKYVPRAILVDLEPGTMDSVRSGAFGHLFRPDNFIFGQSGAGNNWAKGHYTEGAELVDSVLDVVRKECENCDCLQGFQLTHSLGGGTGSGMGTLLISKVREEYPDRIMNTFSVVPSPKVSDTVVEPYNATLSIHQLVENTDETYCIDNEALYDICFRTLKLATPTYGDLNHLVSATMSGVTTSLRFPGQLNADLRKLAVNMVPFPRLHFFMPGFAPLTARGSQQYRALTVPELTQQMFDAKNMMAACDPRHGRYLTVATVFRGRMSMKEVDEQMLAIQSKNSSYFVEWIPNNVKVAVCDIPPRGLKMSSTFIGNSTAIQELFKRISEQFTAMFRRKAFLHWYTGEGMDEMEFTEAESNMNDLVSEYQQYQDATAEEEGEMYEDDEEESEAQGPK
T1 sequence (P68363 whole entry K40R, chain 1 of 2): as the sequence (P68363 whole entry K40R, chain 1 of 2) above
T1 sequence (Q13509 whole entry R262A, chain 2 of 2): as the sequence (Q13509 whole entry, chain 2 of 2) above, with R262A counted along it

Binder	Kd [1]	Kd [2]	Kd [3]	Kd [4]	Kd [5]	Kd [6]
B1	36 µM	6.5 µM	0.86 µM	0.012 µM	2.5 µM	0.029 µM
B2	14 µM	12 µM	0.12 µM	0.012 µM	0.05 µM	0.01 µM
